Assay [1] has as its target T1, BRD4 ET domain (600–700) (human, UniProt O60885 600-700). The assay is described as follows: MST.
For assay [2], the target named is T1, BRD4 ET domain (600–700). The assay is described as follows: NMR titration.
For assay [3], the target named is BRD4 bromodomain 1 (residues 43–180) (human, UniProt O60885 43-180). Put plainly: NMR titration.

The text below walks through data of PMC9212912 (Structure (London, England : 1993), 2022).

Ends that are not written are not given here.

Regarding {FAM}-SFYVYSRVKNLN [FAM-SARS-CoV-2 E^55–66 peptide], the dissociation constant (Kd) (usually the concentration at which binding is half-saturated) in the assay with BRD4 ET domain (600–700) [1] turned out to be 50 µM.
Take KPSFYVYSRVKNLNSSRVPD [SARS-CoV-2 E^53−72 peptide (aa 53–72 of SARS-CoV-2 E)]: the binding result with BRD4 ET domain (600–700) [2] was “binds”.
Take SLVK(Ac)PS [monoacetylated SARS-CoV-2 E^K53ac peptide (aa 50–55 of SARS-CoV-2 E)]: in assay [3], the Kd was greater than 1000 µM.
Same read-out and setting: next, SRVK(Ac)NLNSS [monoacetylated SARS-CoV-2 E^K63ac peptide (aa 60–68 of SARS-CoV-2 E)]: 660 µM.
